Experiments:
[1] = molecular target: T1, Human CD3E & CD3G (human, UniProt P07766;P09693); assay: ELISA on plate-coated CD3E & CD3G heterodimer protein (Example 2); 95% CI 25,03 to 66,53 ng/ml, R squared 0.9718
T1 construct: recombinant, tag given as Lama Fc; also called CD3E & CD3G heterodimer protein; CD3E/G antigen
Experimental: (§1) An ELISA plate was coated with CD3E & CD3G heterodimer protein (as shown in FIG. 3) at 100 ng/well at 4° C. overnight. The next day, the plate was blocked with a blocking solution (3% BSA in 1×PBS) for 2 h, washed with a washing solution and drained. The plate was then added with gradiently diluted humanized CD3 antibodies, and incubated at 37° C. for 1 h. The reaction solution was discarded, and the plate was washed and drained. The plate was then added with diluted detection antibody (THE™ His Tag Antibody [HRP]) at 100 μL per well and incubated at 37° C. for 1 h. The detection antibody was discarded, and the plate was washed and drained. The plate was then added with a single-component TMB color developing solution returned to room temperature at 100 μL per well, and the color development was performed at 37° C. for 10 min. After the color was developed, a stop solution was added to the plate at 100 μL per well to terminate the color development reaction. The absorbance was read at 450 nm using a microplate reader.

[2] = molecular target: T2, CD3 on Jurkat cells (human, UniProt P07766;P09693;P04234); assay: flow cytometry on Jurkat cells, FITC-labelled secondary antibody, MFI (Example 3)
T2 construct: on the surface of Jurkat cells
Experimental: The Jurkat cells were adjusted to a concentration of 4×10⁶ cells/ml with PBS, and the cell suspension (50 μl/well) and different concentrations of CD3 antibodies (50 μl/well) were sequentially added to a U-shaped 96-well plate and mixed evenly to achieve final antibody concentrations of […]. The cells were incubated in a 4° C. refrigerator for 1.5 h. After the incubation was completed, the plate was centrifuged (300 g, 5 min), then the supernatant was removed and the residue was washed with PBS (200 μl/well). Finally, FITC-conjugated AffiniPure Rat Anti-Mouse IgG (H+L) was added for staining, and flow cytometry was used for analysis and quantification.

[3] = molecular target: T1, Human CD3E & CD3G; assay: ELISA, plate coated with CD3E & CD3G heterodimer protein (100 ng/well), anti-His tag HRP detection (Example 2)
Experimental: as §1

[4] = molecular target: T1, Human CD3E & CD3G; assay: ELISA on plate-coated CD3E & CD3G heterodimer protein (Example 2); 95% CI 23,44 to 39,91 ng/ml, R squared 0.9911
Experimental: as §1

[5] = molecular target: T1, Human CD3E & CD3G; assay: ELISA on plate-coated CD3E & CD3G heterodimer protein (Example 2); 95% CI 8,947 to 24,24 ng/ml, R squared 0.9587
Experimental: as §1

[6] = molecular target: T1, Human CD3E & CD3G; assay: ELISA on plate-coated CD3E & CD3G heterodimer protein (Example 2); 95% CI 20,94 to 55,12 ng/ml, R squared 0.9704
Experimental: as §1

T2 sequence (P07766 23-207, chain 1 of 3): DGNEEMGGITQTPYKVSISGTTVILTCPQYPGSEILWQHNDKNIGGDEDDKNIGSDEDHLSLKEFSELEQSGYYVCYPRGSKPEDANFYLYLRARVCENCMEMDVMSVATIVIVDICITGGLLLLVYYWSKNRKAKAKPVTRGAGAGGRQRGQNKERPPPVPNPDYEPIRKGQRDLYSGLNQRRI
T2 sequence (P09693 23-182, chain 2 of 3): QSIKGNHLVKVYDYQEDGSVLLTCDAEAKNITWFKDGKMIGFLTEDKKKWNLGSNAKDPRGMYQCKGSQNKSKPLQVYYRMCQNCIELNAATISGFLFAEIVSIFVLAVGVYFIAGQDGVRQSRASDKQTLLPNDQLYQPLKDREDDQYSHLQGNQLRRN
T2 sequence (P04234 22-171, chain 3 of 3): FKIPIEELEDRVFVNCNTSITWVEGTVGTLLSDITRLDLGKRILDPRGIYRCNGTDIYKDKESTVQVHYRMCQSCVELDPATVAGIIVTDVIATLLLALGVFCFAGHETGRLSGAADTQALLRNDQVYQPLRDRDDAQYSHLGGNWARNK
T1 sequence (P07766 23-126 limits assumed, chain 1 of 2): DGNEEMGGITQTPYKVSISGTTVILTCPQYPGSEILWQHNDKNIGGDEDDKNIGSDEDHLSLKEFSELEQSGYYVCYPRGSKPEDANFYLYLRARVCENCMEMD
T1 sequence (P09693 23-116 limits assumed, chain 2 of 2): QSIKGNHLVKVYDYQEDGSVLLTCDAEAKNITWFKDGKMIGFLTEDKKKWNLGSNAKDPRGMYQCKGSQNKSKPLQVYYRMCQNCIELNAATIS

Binder | EC50 (read off the curve) [2] | binding result [3] | other results
VH_V2_VL_V4 (antibody, V domains shown, also called HV2-LV4) VH: EVQLVESGGGLVQPGRSLRLSCAASGFTFNNYWMSWVRQAPGKGLEWVSAITKTGGSTYYPDSVKGRFTISRDNSKSTLYLQMNSLRAEDTATYYCTREYYYDPYIDYWGQGVLVTVSS VL: QFALTQPRSVSGSLGQSVTLSCTRTTGNIGSNYVNWYQQHEGKAPKTMIYRDDKRPSGVPDRFSGSIDRSSNTASLTISGVQAEDEADYYCQSYSSGINIFGGGTKLTVL | ~0.05 µg/mL | – | EC50 [1]: 0.0405 µg/mL
VH_V2_VL_V2 (antibody, V domains shown, also called HV2-LV2) VH: EVQLVESGGGLVQPGRSLRLSCAASGFTFNNYWMSWVRQAPGKGLEWVSAITKTGGSTYYPDSVKGRFTISRDNSKSTLYLQMNSLRAEDTATYYCTREYYYDPYIDYWGQGVLVTVSS VL: QFALTQPRSVSGNLGSSVKISCKRTTGNIGSNYVNWYQQHEGKAPTTMIYRDDKRPDGVPDRFSGSKDRSGNTALLTINNLQTEDEADYYCQSYSSGINIFGGGTKLTVL | – | no binding (tested: 10 µg/ml) | –
C3002HC-LV4 (antibody, V domains shown) VH: EVQLVESGGGLVQPGGSLRLSCAASGFTFNNYWMTWIRQAPGKGLEWVASITKTGGSTYYPDSVKGRFTISRDNAKNSLYLQMNSLRAEDTAVYYCTREYYYDPYIDYWGQGTMVTVSS VL: QFALTQPRSVSGSLGQSVTLSCTRTTGNIGSNYVNWYQQHEGKAPKTMIYRDDKRPSGVPDRFSGSIDRSSNTASLTISGVQAEDEADYYCQSYSSGINIFGGGTKLTVL | ~0.05 µg/mL | – | –
VH_V4_VL_V1 (antibody, V domains shown, also called HV4-LV1) VH: EVQLVESGGGLVQPGGSLRLSCAASGFTFNNYWMTWIRQAPGKGLEWVASITKTGGSTYYPDSVKGRFTISRDNSKSTLYLQMNSLRAEDTAVYYCTREYYYDPYIDYWGQGTLVTVSS VL: QSALTQPRSVSGSPGQSVTISCTGTTGNIGSNYVSWYQQHPGKAPKLMIYRDDKRPSGVPDRFSGSKSGNTASLTISGLQAEDEADYYCQSYSSGINIFGGGTKLTVL | – | no binding (tested: 10 µg/ml) | –
VH_V4_VL_V4 (antibody, V domains shown, also called HV4-LV4) VH: EVQLVESGGGLVQPGGSLRLSCAASGFTFNNYWMTWIRQAPGKGLEWVASITKTGGSTYYPDSVKGRFTISRDNSKSTLYLQMNSLRAEDTAVYYCTREYYYDPYIDYWGQGTLVTVSS VL: QFALTQPRSVSGSLGQSVTLSCTRTTGNIGSNYVNWYQQHEGKAPKTMIYRDDKRPSGVPDRFSGSIDRSSNTASLTISGVQAEDEADYYCQSYSSGINIFGGGTKLTVL | ~0.04 µg/mL | – | EC50 [4]: 0.0305 µg/mL
VH_V3_VL_V2 (antibody, V domains shown, also called HV3-LV2) VH: EVQLVESGGGLVQPGRSLRLSCAASGFTFNNYWMSWVRQAPGKGLEWVASITKTGGSTYYPDSVKGRFTISRDNAKSTLYLQMNSLRSEDTATYYCTREYYYDPYIDYWGQGVLVTVSS VL: QFALTQPRSVSGNLGSSVKISCKRTTGNIGSNYVNWYQQHEGKAPTTMIYRDDKRPDGVPDRFSGSKDRSGNTALLTINNLQTEDEADYYCQSYSSGINIFGGGTKLTVL | – | no binding (tested: 10 µg/ml) | –
VH_V3_VL_V1 (antibody, V domains shown, also called HV3-LV1) VH: EVQLVESGGGLVQPGRSLRLSCAASGFTFNNYWMSWVRQAPGKGLEWVASITKTGGSTYYPDSVKGRFTISRDNAKSTLYLQMNSLRSEDTATYYCTREYYYDPYIDYWGQGVLVTVSS VL: QSALTQPRSVSGSPGQSVTISCTGTTGNIGSNYVSWYQQHPGKAPKLMIYRDDKRPSGVPDRFSGSKSGNTASLTISGLQAEDEADYYCQSYSSGINIFGGGTKLTVL | – | no binding (tested: 10 µg/ml) | –
VH_V1_VL_V4 (antibody, V domains shown, also called HV1-LV4) VH: EVQLVESGGGLVQPGGSLRLSCAASGFTFNNYWMSWVRQAPGKGLEWVSAITKTGGSTYYADSVKGRFTISRDNSKNTLYLQMNSLRAEDTAVYYCTREYYYDPYIDYWGQGTLVTVSS VL: QFALTQPRSVSGSLGQSVTLSCTRTTGNIGSNYVNWYQQHEGKAPKTMIYRDDKRPSGVPDRFSGSIDRSSNTASLTISGVQAEDEADYYCQSYSSGINIFGGGTKLTVL | ~0.04 µg/mL | – | EC50 [5]: 0.0148 µg/mL
VH_V3_VL_V4 (antibody, V domains shown, also called HV3-LV4) VH: EVQLVESGGGLVQPGRSLRLSCAASGFTFNNYWMSWVRQAPGKGLEWVASITKTGGSTYYPDSVKGRFTISRDNAKSTLYLQMNSLRSEDTATYYCTREYYYDPYIDYWGQGVLVTVSS VL: QFALTQPRSVSGSLGQSVTLSCTRTTGNIGSNYVNWYQQHEGKAPKTMIYRDDKRPSGVPDRFSGSIDRSSNTASLTISGVQAEDEADYYCQSYSSGINIFGGGTKLTVL | ~0.04 µg/mL | – | EC50 [6]: 0.0337 µg/mL
C3002-2-HC-LV4 (antibody, V domains shown) VH: EVQLVESGGGLVQPGGSLRLSCAASGFTFNNYWMTWIRQAPGKGLEWVASITKTGGSTYYPDSVKGRFTISRDNAKNSLYLQMNSLRAEDTATYYCTREYYYDPYIDYWGQGVMVTVSS VL: QFALTQPRSVSGSLGQSVTLSCTRTTGNIGSNYVNWYQQHEGKAPKTMIYRDDKRPSGVPDRFSGSIDRSSNTASLTISGVQAEDEADYYCQSYSSGINIFGGGTKLTVL | ~0.04 µg/mL | – | –
